According to the supplement of paper PMC10126150:
± gives the standard deviation of the averaged measurements.

Test system: ATP
Test: switch fluorescence ratio, 500 uM ATP over buffer (Cy3 cluster intensity, sum of 5 cycles each) (fold (ratio)); higher = stronger signal-on switching upon ATP binding; sequences stand for … in TCGTCGGCAGCGTCAGATGTGTATAAGAGACAGTTTTTTTTTTTTTTTTTTTTTTTTT…TC
Conditions: aptamer strand: ATP DNA aptamer (quencher-CACCTGGGGGAGTATTGCGGAGGAAGG + anchor), 100 nM annealed; ATP concentration: 500 uM
Outline: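 Imaging in selection buffer was followed by imaging after 15 min with 500 uM ATP at 22 °C, for Cy3-labelled switching-strand clusters annealed to 100 nM quencher-labelled ATP aptamer on a modified Illumina MiSeq flow-cell. Five of these buffer/ATP cycles ran, separated by NaOH stripping and re-annealing. The fluorescence ratio per cluster is summed target-cycle over summed buffer-cycle Cy3 intensity, averaged per switch-domain sequence; clusters outside 100-1000 RFU were removed.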
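Further: ATP exposure 15 min at 22 °C before imaging.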

Sequence	switch fluorescence ratio
CGTAATTATG	1.01 ± 0.03
CGTAATTGCC	1.002 ± 0.008
CGTAATTTGA	1.02 ± 0.047
CGTACAATGG	1.28 ± 0.088
CGTACAGGGG	1.207 ± 0.004
CGTACGGGTG	1 ± 0.014
CGTACGGTAA	1.09 ± 0.042
CGTACGTGCA	1.02 ± 0.032
CGTACTGTAA	1.18 ± 0.03
CGTAGAGCGA	1.03 ± 0.015
CGTAGCGGTA	1.53 ± 0.098
CGTAGCTTAG	1.25 ± 0.13
CGTAGGAAGA	1.02 ± 0.048
CGTAGGAATT	1.07 ± 0.015
CGTAGGAGGG	0.997 ± 0.04
CGTAGGGGTC	0.959 ± 0.042
CGTAGGGTGT	1 ± 0.022
CGTAGGGTTT	0.976 ± 0.055
CGTAGTGAGG	0.994 ± 0.03
CGTAGTGGGG	0.993 ± 0.044
CGTAGTTTGT	1.03 ± 0.076
CGTATAATTT	0.97555 ± 0.00021
CGTATAGCGG	1.02 ± 0.076
CGTATAGTTT	0.9865 ± 0.0096
CGTATCAAAC	1.23 ± 0.049

Sequence	switch fluorescence ratio
CGTATCGGGG	0.993 ± 0.054
CGTATCGTGG	1.03 ± 0.031
CGTATCTAGG	0.98 ± 0.021
CGTATCTATC	1.007 ± 0.0065
CGTATGAATA	0.984 ± 0.011
CGTATGGGGG	1.07 ± 0.08
CGTATGGTTC	0.996 ± 0.031
CGTATTACAC	1.045 ± 0.0033
CGTATTGGGC	0.9577 ± 0.0065
CGTCAAACAT	1.081 ± 0.0084
CGTCAAATAT	1.13 ± 0.041
CGTCAACAGG	1.28 ± 0.062
CGTCACAGTG	1.04 ± 0.019
CGTCAGCGAA	1.18 ± 0.039
CGTCAGTATG	1 ± 0.033
CGTCATCGCA	1.2 ± 0.022
CGTCATGATG	1 ± 0.029
CGTCATTAAG	0.9994 ± 0.0054
CGTCCCTAGC	1.61 ± 0.06
CGTCCGAAGT	2.03 ± 0.18
CGTCCGGTG	1.78 ± 0.65
CGTCGAATAT	1.016 ± 0.0016
CGTCGGAATG	1.091 ± 0.0045
CGTCGGGGAA	1.02 ± 0.027
CGTCGGGGTT	0.973 ± 0.032

Sequence	switch fluorescence ratio
CGTCGGTTTG	0.993 ± 0.019
CGTCGTGGAG	1.01 ± 0.036
CGTCTAAGGT	0.98 ± 0.044
CGTCTAGACT	1.018 ± 0.0036
CGTCTATTGT	0.98 ± 0.046
CGTCTGGTGG	0.991 ± 0.05
CGTCTTACGT	1.03 ± 0.051
CGTCTTGTGG	1 ± 0.022
CGTGACAAGA	0.986 ± 0.056
CGTGACAGGG	1.04 ± 0.058
CGTGACCGGG	0.996 ± 0.016
CGTGACTAAA	0.9893 ± 0.0079
CGTGAGAAAG	1 ± 0.018
CGTGAGATGC	1.01 ± 0.038
CGTGAGGGAG	0.994 ± 0.029
CGTGAGGGTA	1.02 ± 0.028
CGTGAGGGTG	1.01 ± 0.079
CGTGATATAG	1.02 ± 0.026
CGTGCAAAAC	1.82 ± 0.88
CGTGCAAAGA	1.77 ± 1.1
CGTGCGAAGG	1.03 ± 0.049
CGTGCGGCTG	1.028 ± 0.0066
CGTGCTGCAA	4.91 ± 1.7
CGTGCTGGAA	0.975 ± 0.045
CGTGGAAGGA	0.997 ± 0.038

Sequence	switch fluorescence ratio
CGTGGCCGCG	0.959 ± 0.012
CGTGGCGGTA	1.04 ± 0.031
CGTGGGACTG	1.02 ± 0.017
CGTGGGAGGT	0.987 ± 0.036
CGTGGGCAAG	0.996 ± 0.021
CGTGGGCAGT	0.956 ± 0.041
CGTGGGCATT	1.01 ± 0.034
CGTGGGCTGT	0.9817 ± 0.0074
CGTGGGGAGT	1 ± 0.012
CGTGGGGGCG	1.01 ± 0.03
CGTGGGGGGA	1.03 ± 0.013
CGTGGGGGGG	1.02 ± 0.052
CGTGGGTAAG	1.02 ± 0.039
CGTGGGTGGG	1.01 ± 0.036
CGTGGGTTCC	0.989 ± 0.038
CGTGGTATTT	0.982 ± 0.016
CGTGGTGCTC	1.07 ± 0.043
CGTGGTTGCA	0.989 ± 0.018
CGTGGTTGCG	0.962 ± 0.055
CGTGTAGTTG	1.02 ± 0.026
CGTGTATATC	1.07 ± 0.028
CGTGTCATTA	1.01 ± 0.031
CGTGTCCTCG	1.04 ± 0.088
CGTGTGATTT	0.988 ± 0.025
CGTGTGGTAT	1.01 ± 0.042
